Reference: patent US10946092 (BEIJING MABWORKS BIOTECH, dated 2021)
Where two headings read alike, the source gives them in different places.

T1: human LAG3 expressed on HEK293A cells (human, UniProt P18627 23-525)
T1 construct: whole, on cells; also called HEK293A/human LAG3
T1 sequence (looked up): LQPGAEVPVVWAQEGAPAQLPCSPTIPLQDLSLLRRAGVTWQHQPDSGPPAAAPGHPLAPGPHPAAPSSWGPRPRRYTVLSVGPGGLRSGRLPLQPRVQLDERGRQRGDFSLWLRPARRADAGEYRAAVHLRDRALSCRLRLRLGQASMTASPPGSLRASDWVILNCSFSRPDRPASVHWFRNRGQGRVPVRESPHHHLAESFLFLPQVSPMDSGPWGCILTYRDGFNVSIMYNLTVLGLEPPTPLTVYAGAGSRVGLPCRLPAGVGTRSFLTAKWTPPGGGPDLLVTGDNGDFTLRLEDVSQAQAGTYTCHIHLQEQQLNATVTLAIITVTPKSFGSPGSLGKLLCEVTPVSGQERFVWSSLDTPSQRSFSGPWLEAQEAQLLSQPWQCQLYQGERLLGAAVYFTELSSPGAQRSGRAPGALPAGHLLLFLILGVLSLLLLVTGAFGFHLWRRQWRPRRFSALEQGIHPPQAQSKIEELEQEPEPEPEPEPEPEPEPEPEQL

T2: mouse LAG3 expressed on HEK293A cells (mouse, UniProt Q61790 24-521)
T2 construct: whole, on cells; also called HEK293A/mouse LAG3
T2 sequence (looked up): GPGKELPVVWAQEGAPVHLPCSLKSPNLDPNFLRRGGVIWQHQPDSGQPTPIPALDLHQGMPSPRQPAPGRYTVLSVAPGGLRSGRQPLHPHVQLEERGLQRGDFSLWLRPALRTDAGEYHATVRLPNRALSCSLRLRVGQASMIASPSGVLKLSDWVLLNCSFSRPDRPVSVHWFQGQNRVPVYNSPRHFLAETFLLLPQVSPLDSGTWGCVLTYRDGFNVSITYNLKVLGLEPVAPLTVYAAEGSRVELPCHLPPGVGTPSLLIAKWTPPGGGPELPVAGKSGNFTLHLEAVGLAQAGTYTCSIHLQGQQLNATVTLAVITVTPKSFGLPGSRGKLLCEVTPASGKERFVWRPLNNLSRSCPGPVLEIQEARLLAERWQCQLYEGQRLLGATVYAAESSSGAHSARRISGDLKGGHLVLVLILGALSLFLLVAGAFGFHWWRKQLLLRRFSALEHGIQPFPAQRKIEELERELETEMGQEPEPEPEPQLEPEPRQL

T3: recombinant human LAG3(ECD)-his (Sino Biological, Cat #: 16498-H08H) (human, UniProt P18627 23-450)
T3 construct: extracellular domain; Bought protein; not shown: his tag
T3 sequence (looked up): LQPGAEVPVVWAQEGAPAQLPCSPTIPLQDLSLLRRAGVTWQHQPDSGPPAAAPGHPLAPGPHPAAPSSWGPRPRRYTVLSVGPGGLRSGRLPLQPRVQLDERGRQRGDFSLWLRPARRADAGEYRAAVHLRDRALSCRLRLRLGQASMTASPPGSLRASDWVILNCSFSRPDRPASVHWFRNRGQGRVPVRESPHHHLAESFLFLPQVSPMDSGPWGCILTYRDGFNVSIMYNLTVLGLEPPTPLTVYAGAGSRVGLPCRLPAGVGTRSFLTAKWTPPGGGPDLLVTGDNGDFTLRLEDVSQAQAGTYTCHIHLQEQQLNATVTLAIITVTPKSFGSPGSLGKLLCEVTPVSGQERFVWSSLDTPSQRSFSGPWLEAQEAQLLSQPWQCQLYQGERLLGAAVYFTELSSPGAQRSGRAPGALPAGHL

T4: monkey (rhesus) LAG3 expressed on HEK293A cells (monkey (rhesus), UniProt A0A5F8A874 23-533)
T4 construct: whole, on cells; also called HEK293A/rh LAG3
T4 sequence: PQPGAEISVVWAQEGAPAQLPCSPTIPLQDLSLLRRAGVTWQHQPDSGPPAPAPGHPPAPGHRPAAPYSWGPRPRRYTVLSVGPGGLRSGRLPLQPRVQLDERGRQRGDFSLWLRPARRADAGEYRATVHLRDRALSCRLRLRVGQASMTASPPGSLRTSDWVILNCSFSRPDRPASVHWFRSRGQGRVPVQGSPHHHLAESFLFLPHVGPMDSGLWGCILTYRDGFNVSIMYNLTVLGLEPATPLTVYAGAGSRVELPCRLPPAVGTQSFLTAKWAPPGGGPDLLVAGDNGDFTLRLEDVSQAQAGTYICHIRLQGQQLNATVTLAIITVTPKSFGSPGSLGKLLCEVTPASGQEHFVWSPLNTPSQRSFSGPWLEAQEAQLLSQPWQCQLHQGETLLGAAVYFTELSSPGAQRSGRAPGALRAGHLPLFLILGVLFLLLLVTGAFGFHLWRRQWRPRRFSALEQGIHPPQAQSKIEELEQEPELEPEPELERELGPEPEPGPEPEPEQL


What was measured:
[1] = molecular target: T1, human LAG3 expressed on HEK293A cells; assay: FACS on HEK293A cells expressing human LAG3
[2] = molecular target: T2, mouse LAG3 expressed on HEK293A cells; assay: FACS on HEK293A cells expressing mouse LAG3
[3] = molecular target: T3, recombinant human LAG3(ECD)-his (Sino …); assay: SPR (BIAcore 8K), human LAG3(ECD)-his coupled to chip, antibody injected, 1:1 Langmuir
Method: (§1) Serially diluted antibodies at concentrations ranging from 0.3 μM to 10 μM were injected into the SPR running buffer (HBS-EP buffer, pH7.4, GE Life Sciences; US; Cat #: BR-1006-69) at 30 μL/minute. The binding capacities were calculated with the RUs of blank controls subtracted. The association rate (Ka) and dissociation rate (Kd) were calculated using the one-to-one Langmuir binding model (BIA Evaluation Software, GE Life Sciences). The equilibrium dissociation constant K_D was calculated as the kd/ka ratio.

[4] = molecular target: T2, mouse LAG3 expressed on HEK293A cells; assay: FACS on HEK293A cells expressing mouse LAG3; remark: listed apart in the source
[5] = molecular target: T4, monkey (rhesus) LAG3 expressed on …; assay: FACS on HEK293A cells expressing rhesus LAG3
[6] = molecular target: T3, recombinant human LAG3(ECD)-his (Sino …); assay: SPR (BIAcore 8K), human LAG3(ECD)-his coupled to chip, antibody injected, 1:1 Langmuir; printed a second time as 'Ka values', read as Kd
Method: as §1

Binder | EC50 (read off the curve) [1] [µg/mL] | binding result [2] | Kd [3] [nM] | kon [3] [M⁻¹ s⁻¹] | binding result [4] | EC50 (read off the curve) [5] [µg/mL] | koff [6] [s⁻¹]
chimeric 134G10 antibody (antibody, human IgG4 S228P, kappa, V domains shown, Mouse variable regions on human IgG4 (S228P)/kappa constant regions; also called 134G10-CM) VH: EVQLVESGGDLVKPGGSLKLSCAASGFTFSSFGMSWVRQTPDKRLEWVGIISSGGTYTFYPDILKGRFTISRDNAKNTLYLQMSSLKSEDTAMYYCARVYSDYDGRFDYWGQGTTLTVSS VL: DIVMTQSPSSLSVSAGEKVTMNCKSSQSLLNSGNQKNYLAWYQQKPGQPPKLLIYGASTRESGVPDRFTGSGSGTDFTLTISSVQAEDLAVYYCQNDHSYPLTFGAGTKLELKR | ~0.09 | no binding | 0.737 | 93900 |  |  | 
chimeric 101F4 antibody (antibody, human IgG4 S228P, kappa, V domains shown, Mouse variable regions on human IgG4 (S228P)/kappa constant regions; also called 101F4-CM) VH: EVQLEQSGAELVRPGASVTLSCKASGYTFTDYEMHWVKQTPVYGLEWMGAIDPETGGIVYNQRFKGKAILTADKSSSTAYMELRSLTSEDSAVYYCTGAGWGYWGQGTTLTVSS VL: DIVITQSPSSMYASLGERVTITCKASQDINSYLSWFQQKPGKSPKTLIYRANRLLDGVPSRFSGSGSGQDYSLTISSLEFEDMGLYYCLQYDEFPFTFGSGTKLEIKR | ~0.05 |  | 0.833 | 403000 | no binding | ~0.4 | 0.000335
